Reference: publication PMC2191820

T1: Ig/EBP-1 (C/EBP gamma) (mouse, UniProt P53568 1-150)
T1 sequence: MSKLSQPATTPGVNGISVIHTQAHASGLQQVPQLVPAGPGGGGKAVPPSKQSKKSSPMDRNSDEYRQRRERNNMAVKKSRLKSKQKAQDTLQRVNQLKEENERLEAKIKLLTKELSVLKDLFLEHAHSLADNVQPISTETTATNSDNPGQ


Target: T1, Ig/EBP-1 (C/EBP gamma)
Assay: EMSA

| Binder | binding result |
| --- | --- |
| oligo A wt (dsDNA) DNA 1: GATCCTGCCTTAGTCAACTTCCCAAGAACAGA DNA 2: GATCTCTGTTCTTGGGAAGTTGACTAAGGCAG | binds |
| A mt13 (dsDNA) DNA 1: GATCCTGCCCCTCGAGGTTCCCAAGAACAGA DNA 2: GATCTCTGTTCTTGGGAACCTCGAGGGGCAG | no binding |
